Laboratory results reported in patent US20140086936.

Target: hemagglutinin (HA0) of influenza A/Puerto Rico/8/34 (PR8) virus, P03452

B1: Recombinant purified human matriptase (amino acids 596-855) (protein)
chain: GSDEKDCDCGLRSFTRQARVVGGTDADEGEWPWQVSLHALGQGHICGASLISPNWLVSAAHCYIDDRGFRYSDPTQWTAFLGLHDQSQRSAPGVQERRLKRIISHPFFNDFTFDYDIALLELEKPAEYSSMVRPICLPDASHVFPAGKAIWVTGWGHTQYGGTGALILQKGEIRVINQTTCENLLPQQITPRMMCVGFLSGGVDSCQGDSGGPLSSVEADGRIFQAGVVSWGDGCAQRNKPGVYTRLPLFRDWIKENTGV
cleavage of HA0 to HA1, Western blot: matriptase was able to cleave viral HA
